According to the supplement of paper PMC9112550, “Optimization of the antimicrobial peptide Bac7 by deep mutational scanning” (BMC Biology, 2022):

Test system: Escherichia coli TOP10
Experiment: shrunken log2 fold change of peptide-encoding DNA abundance (4.5 h post-induction vs induction); higher = less antimicrobial activity (less host growth inhibition)
Conditions: time post-induction: 4.5 h; library: site-saturation at positions 5, 18, 19, 20
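Further: peptides expressed intracellularly from a pBAD plasmid library in pooled LB shake-flask culture, induced with 0.3% L-arabinose, DNA abundance read by NGS, three biological replicates, DESeq2 with apeglm shrinkage.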

| Sequence | shrunken log2 fold change |
| --- | --- |
| RRIRWRPPRLPRPRPRPEWVPRP | 0.927 |
| RRIRWRPPRLPRPRPRPQYSPRP | -0.653 |
| RRIRRRPPRLPRPRPRPSFRPRP | -0.0185 |
| RRIRWRPPRLPRPRPRPWLNPRP | -0.227 |
| RRIRQRPPRLPRPRPRPVCPPRP | -0.0461 |
| RRIRRRPPRLPRPRPRPLHTPRP | 0.321 |
| RRIRMRPPRLPRPRPRPCHGPRP | 0.241 |
| RRIRGRPPRLPRPRPRPHHKPRP | -0.122 |
| RRIRRRPPRLPRPRPRPHKWPRP | 2.57 |
| RRIRLRPPRLPRPRPRPPHNPRP | 0.504 |
| RRIRHRPPRLPRPRPRPLHLPRP | -0.0926 |
| RRIRMRPPRLPRPRPRPLEYPRP | 0.0611 |
| RRIRCRPPRLPRPRPRPQKGPRP | -0.133 |
| RRIRERPPRLPRPRPRPDGNPRP | -0.032 |
| RRIRARPPRLPRPRPRPIVEPRP | 0.207 |
| RRIRPRPPRLPRPRPRPQQGPRP | 0.14 |
| RRIRCRPPRLPRPRPRPMNDPRP | -0.44 |
| RRIRCRPPRLPRPRPRPGKDPRP | 0.124 |
| RRIRWRPPRLPRPRPRPRLYPRP | 0.245 |
| RRIRIRPPRLPRPRPRPCQWPRP | 0.0525 |
| RRIRMRPPRLPRPRPRPGFCPRP | 0.442 |
| RRIRNRPPRLPRPRPRPILLPRP | -0.103 |
| RRIRMRPPRLPRPRPRPSLYPRP | -0.126 |
| RRIRVRPPRLPRPRPRPDYSPRP | -0.107 |
| RRIRKRPPRLPRPRPRPRAVPRP | 0.849 |

| Sequence | shrunken log2 fold change |
| --- | --- |
| RRIRRRPPRLPRPRPRPICAPRP | 0.127 |
| RRIRARPPRLPRPRPRPLSTPRP | 0.319 |
| RRIRVRPPRLPRPRPRPDALPRP | -0.0285 |
| RRIRHRPPRLPRPRPRPHRWPRP | 0.0507 |
| RRIRERPPRLPRPRPRPEYAPRP | -0.143 |
| RRIRYRPPRLPRPRPRPFNVPRP | 0.0019 |
| RRIRGRPPRLPRPRPRPFYIPRP | 0.0551 |
| RRIRTRPPRLPRPRPRPGCGPRP | 0.385 |
| RRIRVRPPRLPRPRPRPLYLPRP | -0.507 |
| RRIRCRPPRLPRPRPRPKKNPRP | 0.24 |
| RRIRSRPPRLPRPRPRPGEVPRP | 0.223 |
| RRIRHRPPRLPRPRPRPHNFPRP | -0.0184 |
| RRIRLRPPRLPRPRPRPTCRPRP | 0.187 |
| RRIRARPPRLPRPRPRPMIAPRP | 0.263 |
| RRIRGRPPRLPRPRPRPHDWPRP | 0.46 |
| RRIRPRPPRLPRPRPRPYELPRP | -0.0423 |
| RRIRTRPPRLPRPRPRPEPGPRP | 0.0826 |
| RRIRVRPPRLPRPRPRPPKTPRP | 0.152 |
| RRIRCRPPRLPRPRPRPRTDPRP | 0.0321 |
| RRIRARPPRLPRPRPRPMRAPRP | 1.25 |
| RRIRCRPPRLPRPRPRPMCMPRP | -0.232 |
| RRIRRRPPRLPRPRPRPFYYPRP | -0.204 |
| RRIRMRPPRLPRPRPRPGNPPRP | 0.639 |
| RRIRPRPPRLPRPRPRPDDMPRP | 0.0244 |
| RRIRGRPPRLPRPRPRPNFAPRP | 0.569 |

| Sequence | shrunken log2 fold change |
| --- | --- |
| RRIRMRPPRLPRPRPRPVAVPRP | 0.55 |
| RRIRMRPPRLPRPRPRPSNKPRP | 0.0232 |
| RRIRERPPRLPRPRPRPPDSPRP | -0.303 |
| RRIRPRPPRLPRPRPRPASPPRP | 0.287 |
| RRIRDRPPRLPRPRPRPFWLPRP | 0.00235 |
| RRIRIRPPRLPRPRPRPCKVPRP | -0.513 |
| RRIRCRPPRLPRPRPRPIKGPRP | -0.0586 |
| RRIRKRPPRLPRPRPRPHCIPRP | -0.165 |
| RRIRERPPRLPRPRPRPMKKPRP | 0.00499 |
| RRIRPRPPRLPRPRPRPYGMPRP | -0.155 |
| RRIRLRPPRLPRPRPRPAQGPRP | 0.376 |
| RRIRSRPPRLPRPRPRPKVVPRP | 0.00912 |
| RRIRMRPPRLPRPRPRPGDPPRP | 1.09 |
| RRIRGRPPRLPRPRPRPEIQPRP | 0.769 |
| RRIRNRPPRLPRPRPRPNFDPRP | 0.215 |
| RRIRHRPPRLPRPRPRPVSSPRP | -0.0295 |
| RRIRFRPPRLPRPRPRPCVVPRP | -0.379 |
| RRIRKRPPRLPRPRPRPMTYPRP | -0.212 |
| RRIRARPPRLPRPRPRPAHFPRP | 0.25 |
| RRIRSRPPRLPRPRPRPDPKPRP | -0.00687 |
| RRIRCRPPRLPRPRPRPMHDPRP | 0.0244 |
| RRIRNRPPRLPRPRPRPITCPRP | -0.166 |
| RRIRNRPPRLPRPRPRPRREPRP | 0.38 |
| RRIRNRPPRLPRPRPRPGWFPRP | -0.00934 |
| RRIRNRPPRLPRPRPRPVVYPRP | -0.228 |
